B1: library; numbered along this chain (parent)
chain: MAAAGGARLLRAASAVLGGPAGRWLHHAGSRAGSSGLLRNRGPGGSAEASRSLSVSARARSSSEDKITVHFINRDGETLTTKGKVGDSLLDVVVENNLDIDGFGACEGTLACSTCHLIFEDHIYEKLDAITDEENDMLDLAYGLTDRSRLGCQICLTKSMDNMTVRVPETVADARQSIDVGKTS

Variants of: B1
Experiment: scaled log2 fold change in cell abundance, elesclomol vs control (0 = silent mean, 1 = nonsense mean) (scaled log2 ratio); higher = higher viability under elesclomol (loss of FDX1 cuproptosis function)
Settings: glucose 10 mM
Procedure: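 Deep mutational scan of full-length human FDX1: a pooled saturation-mutagenesis ORF library (every residue 2-184 mutated to all 19 amino acids plus stop, and silent codons where available) was expressed by lentivirus in FDX1-knockout ABC1 (14 days) or HEK293T (11 days) cells grown with elesclomol (ES) or DMSO control. Variant abundance came from ORF sequencing. The log2 fold change (ES vs control, mean of duplicates) was centred on the silent-variant mean (0) and scaled to the nonsense-variant mean (1). Higher values mean greater viability under ES, i.e. loss of FDX1 function in cuproptosis.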

[1] = with ABC1 FDX1 KO, elesclomol 5 nM, 14 days
[2] = with HEK293T FDX1 KO, elesclomol 40 nM, 11 days
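Note: variant abundance is its share of total variant reads in each endpoint sample, from next-generation sequencing of the integrated ORF PCR-amplified out of genomic DNA.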

Variant	scaled log2 fold change [1]	scaled log2 fold change [2]
MAAAGGARLLRAASAVLGGPAGRWLHHAGSRAGSSGLLRNRGPGGSAEASRFLSVSARARSSSEDKITVHFINRDGETLTTKGKVGDSLLDVVVENNLDIDGFGACEGTLACSTCHLIFEDHIYEKLDAITDEENDMLDLAYGLTDRSRLGCQICLTKSMDNMTVRVPETVADARQSIDVGKTS [S52F]	0.556	
MAAAGGARLLRAASAVLGGPAGRWLHHAGSRAGSSGLLRNRGPGGSAEASRALSVSARARSSSEDKITVHFINRDGETLTTKGKVGDSLLDVVVENNLDIDGFGACEGTLACSTCHLIFEDHIYEKLDAITDEENDMLDLAYGLTDRSRLGCQICLTKSMDNMTVRVPETVADARQSIDVGKTS [S52A]	0.665	0.164
MAAAGGARLLRAASAVLGGPAGRWLHHAGSRAGSSGLLRNRGPGGSAEASRILSVSARARSSSEDKITVHFINRDGETLTTKGKVGDSLLDVVVENNLDIDGFGACEGTLACSTCHLIFEDHIYEKLDAITDEENDMLDLAYGLTDRSRLGCQICLTKSMDNMTVRVPETVADARQSIDVGKTS [S52I]	-0.0467	-0.248
MAAAGGARLLRAASAVLGGPAGRWLHHAGSRAGSSGLLRNRGPGGSAEASRDLSVSARARSSSEDKITVHFINRDGETLTTKGKVGDSLLDVVVENNLDIDGFGACEGTLACSTCHLIFEDHIYEKLDAITDEENDMLDLAYGLTDRSRLGCQICLTKSMDNMTVRVPETVADARQSIDVGKTS [S52D]	0.202	0.946
MAAAGGARLLRAASAVLGGPAGRWLHHAGSRAGSSGLLRNRGPGGSAEASRKLSVSARARSSSEDKITVHFINRDGETLTTKGKVGDSLLDVVVENNLDIDGFGACEGTLACSTCHLIFEDHIYEKLDAITDEENDMLDLAYGLTDRSRLGCQICLTKSMDNMTVRVPETVADARQSIDVGKTS [S52K]	0.174	-1.31
MAAAGGARLLRAASAVLGGPAGRWLHHAGSRAGSSGLLRNRGPGGSAEASRHLSVSARARSSSEDKITVHFINRDGETLTTKGKVGDSLLDVVVENNLDIDGFGACEGTLACSTCHLIFEDHIYEKLDAITDEENDMLDLAYGLTDRSRLGCQICLTKSMDNMTVRVPETVADARQSIDVGKTS [S52H]	-0.197	0.41
MAAAGGARLLRAASAVLGGPAGRWLHHAGSRAGSSGLLRNRGPGGSAEASRGLSVSARARSSSEDKITVHFINRDGETLTTKGKVGDSLLDVVVENNLDIDGFGACEGTLACSTCHLIFEDHIYEKLDAITDEENDMLDLAYGLTDRSRLGCQICLTKSMDNMTVRVPETVADARQSIDVGKTS [S52G]	0.447	-0.133
MAAAGGARLLRAASAVLGGPAGRWLHHAGSRAGSSGLLRNRGPGGSAEASRELSVSARARSSSEDKITVHFINRDGETLTTKGKVGDSLLDVVVENNLDIDGFGACEGTLACSTCHLIFEDHIYEKLDAITDEENDMLDLAYGLTDRSRLGCQICLTKSMDNMTVRVPETVADARQSIDVGKTS [S52E]	0.648	0.0946
MAAAGGARLLRAASAVLGGPAGRWLHHAGSRAGSSGLLRNRGPGGSAEASRCLSVSARARSSSEDKITVHFINRDGETLTTKGKVGDSLLDVVVENNLDIDGFGACEGTLACSTCHLIFEDHIYEKLDAITDEENDMLDLAYGLTDRSRLGCQICLTKSMDNMTVRVPETVADARQSIDVGKTS [S52C]	0.431	-0.0215
MAAAGGARLLRAASAVLGGPAGRWLHHAGSRAGSSGLLRNRGPGGSAEASTSLSVSARARSSSEDKITVHFINRDGETLTTKGKVGDSLLDVVVENNLDIDGFGACEGTLACSTCHLIFEDHIYEKLDAITDEENDMLDLAYGLTDRSRLGCQICLTKSMDNMTVRVPETVADARQSIDVGKTS [R51T]	0.0589	0.546
MAAAGGARLLRAASAVLGGPAGRWLHHAGSRAGSSGLLRNRGPGGSAEASQSLSVSARARSSSEDKITVHFINRDGETLTTKGKVGDSLLDVVVENNLDIDGFGACEGTLACSTCHLIFEDHIYEKLDAITDEENDMLDLAYGLTDRSRLGCQICLTKSMDNMTVRVPETVADARQSIDVGKTS [R51Q]	-1.02	-0.603
MAAAGGARLLRAASAVLGGPAGRWLHHAGSRAGSSGLLRNRGPGGSAEASPSLSVSARARSSSEDKITVHFINRDGETLTTKGKVGDSLLDVVVENNLDIDGFGACEGTLACSTCHLIFEDHIYEKLDAITDEENDMLDLAYGLTDRSRLGCQICLTKSMDNMTVRVPETVADARQSIDVGKTS [R51P]	0.212	
MAAAGGARLLRAASAVLGGPAGRWLHHAGSRAGSSGLLRNRGPGGSAEASSSLSVSARARSSSEDKITVHFINRDGETLTTKGKVGDSLLDVVVENNLDIDGFGACEGTLACSTCHLIFEDHIYEKLDAITDEENDMLDLAYGLTDRSRLGCQICLTKSMDNMTVRVPETVADARQSIDVGKTS [R51S]	0.00287	-0.516
MAAAGGARLLRAASAVLGGPAGRWLHHAGSRAGSSGLLRNRGPGGSAEASWSLSVSARARSSSEDKITVHFINRDGETLTTKGKVGDSLLDVVVENNLDIDGFGACEGTLACSTCHLIFEDHIYEKLDAITDEENDMLDLAYGLTDRSRLGCQICLTKSMDNMTVRVPETVADARQSIDVGKTS [R51W]	0.239	1.75
MAAAGGARLLRAASAVLGGPAGRWLHHAGSRAGSSGLLRNRGPGGSAEASYSLSVSARARSSSEDKITVHFINRDGETLTTKGKVGDSLLDVVVENNLDIDGFGACEGTLACSTCHLIFEDHIYEKLDAITDEENDMLDLAYGLTDRSRLGCQICLTKSMDNMTVRVPETVADARQSIDVGKTS [R51Y]	0.343	-0.174
MAAAGGARLLRAASAVLGGPAGRWLHHAGSRAGSSGLLRNRGPGGSAEASNSLSVSARARSSSEDKITVHFINRDGETLTTKGKVGDSLLDVVVENNLDIDGFGACEGTLACSTCHLIFEDHIYEKLDAITDEENDMLDLAYGLTDRSRLGCQICLTKSMDNMTVRVPETVADARQSIDVGKTS [R51N]	-0.079	1.03
MAAAGGARLLRAASAVLGGPAGRWLHHAGSRAGSSGLLRNRGPGGSAEASVSLSVSARARSSSEDKITVHFINRDGETLTTKGKVGDSLLDVVVENNLDIDGFGACEGTLACSTCHLIFEDHIYEKLDAITDEENDMLDLAYGLTDRSRLGCQICLTKSMDNMTVRVPETVADARQSIDVGKTS [R51V]	-0.873	-0.419
MAAAGGARLLRAASAVLGGPAGRWLHHAGSRAGSSGLLRNRGPGGSAEASMSLSVSARARSSSEDKITVHFINRDGETLTTKGKVGDSLLDVVVENNLDIDGFGACEGTLACSTCHLIFEDHIYEKLDAITDEENDMLDLAYGLTDRSRLGCQICLTKSMDNMTVRVPETVADARQSIDVGKTS [R51M]	-0.235	
